Molecular target: protein phosphatase-1 alpha catalytic subunit (recombinant PP1α) (UniProt P62139)
Chain of UniProt P62139 (P62139 whole entry): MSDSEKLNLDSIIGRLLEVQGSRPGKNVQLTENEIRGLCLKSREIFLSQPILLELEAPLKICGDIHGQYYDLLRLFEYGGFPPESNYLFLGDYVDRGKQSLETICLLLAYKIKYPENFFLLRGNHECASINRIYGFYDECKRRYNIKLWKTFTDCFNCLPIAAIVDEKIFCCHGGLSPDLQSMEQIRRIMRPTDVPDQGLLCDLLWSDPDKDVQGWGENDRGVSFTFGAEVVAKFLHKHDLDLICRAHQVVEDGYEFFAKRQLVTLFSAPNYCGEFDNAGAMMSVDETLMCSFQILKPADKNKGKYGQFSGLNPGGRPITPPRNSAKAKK

B1: Inh3(1–47) (domain or fragment)
chain: MAEAGAGLSETVTETTVTVTTEPENRSLTIKLRKRKPEKKVEWTSDT
fold increase in IC50 of inhibition of PP1 activity, against Inh3(1–64): 3.5 fold

— PMC2613339
